# Tests used:
# [1] = substrate: CC(C)=CCC/C(C)=C/COP(=O)(O)OP(=O)(O)O; experiment: HPLC of S-adenosylhomocysteine formation, steady state; format: biochemical, Streptomyces coelicolor; conditions: 100 μM SAM, 10 mM MgCl2, pH 7.0, 30°C, 20 min, 2 μM enzyme
# [2] = substrate: CC(C)=CCOP(=O)(O)OP(=O)(O)O; experiment: as above; format: biochemical, Streptomyces coelicolor; conditions: 100 μM SAM, 10 mM MgCl2, pH 7.0, 30°C, 20 min, 5 μM enzyme
Protein,Km [1] [µM],kcat [1],Km [2] [µM],kcat [2]
ScGPPC2MT (GPP C2-methyltransferase) (Streptomyces coelicolor A3(2)) (protein) MTTETTTATATAKIPAPATPYQEDIARYWNNEARPVNLRLGDVDGLYHHHYGIGPVDRAALGDPEHSEYEKKVIAELHRLESAQAEFLMDHLGQAGPDDTLVDAGCGRGGSMVMAHRRFGSRVEGVTLSAAQADFGNRRARELRIDDHVRSRVCNMLDTPFDKGAVTASWNNESTMYVDLHDLFSEHSRFLKVGGRYVTITGCWNPRYGQPSKWVSQINAHFECNIHSRREYLRAMADNRLVPHTIVDLTPDTLPYWELRATSSLVTGIEKAFIESYRDGSFQYVLIAADRV,0.88 ± 0.09,(4.90 ± 0.16) × 10^−4 s^−1,,
ScGPPC2MT (GPP C2-methyltransferase) (Streptomyces coelicolor A3(2); F222Y/G202M) (protein) MTTETTTATATAKIPAPATPYQEDIARYWNNEARPVNLRLGDVDGLYHHHYGIGPVDRAALGDPEHSEYEKKVIAELHRLESAQAEFLMDHLGQAGPDDTLVDAGCGRGGSMVMAHRRFGSRVEGVTLSAAQADFGNRRARELRIDDHVRSRVCNMLDTPFDKGAVTASWNNESTMYVDLHDLFSEHSRFLKVGGRYVTITMCWNPRYGQPSKWVSQINAHYECNIHSRREYLRAMADNRLVPHTIVDLTPDTLPYWELRATSSLVTGIEKAFIESYRDGSFQYVLIAADRV,,,5.33 ± 0.81,(9.59 ± 0.25) × 10^−5 s^−1

# — article PMC9800250
